Data published in publication PMC5584928.

T1: integrin αvβ3 on β3-CHO cells (recombinant hamster αv/human β3 hybrid), P05106
T1 chain: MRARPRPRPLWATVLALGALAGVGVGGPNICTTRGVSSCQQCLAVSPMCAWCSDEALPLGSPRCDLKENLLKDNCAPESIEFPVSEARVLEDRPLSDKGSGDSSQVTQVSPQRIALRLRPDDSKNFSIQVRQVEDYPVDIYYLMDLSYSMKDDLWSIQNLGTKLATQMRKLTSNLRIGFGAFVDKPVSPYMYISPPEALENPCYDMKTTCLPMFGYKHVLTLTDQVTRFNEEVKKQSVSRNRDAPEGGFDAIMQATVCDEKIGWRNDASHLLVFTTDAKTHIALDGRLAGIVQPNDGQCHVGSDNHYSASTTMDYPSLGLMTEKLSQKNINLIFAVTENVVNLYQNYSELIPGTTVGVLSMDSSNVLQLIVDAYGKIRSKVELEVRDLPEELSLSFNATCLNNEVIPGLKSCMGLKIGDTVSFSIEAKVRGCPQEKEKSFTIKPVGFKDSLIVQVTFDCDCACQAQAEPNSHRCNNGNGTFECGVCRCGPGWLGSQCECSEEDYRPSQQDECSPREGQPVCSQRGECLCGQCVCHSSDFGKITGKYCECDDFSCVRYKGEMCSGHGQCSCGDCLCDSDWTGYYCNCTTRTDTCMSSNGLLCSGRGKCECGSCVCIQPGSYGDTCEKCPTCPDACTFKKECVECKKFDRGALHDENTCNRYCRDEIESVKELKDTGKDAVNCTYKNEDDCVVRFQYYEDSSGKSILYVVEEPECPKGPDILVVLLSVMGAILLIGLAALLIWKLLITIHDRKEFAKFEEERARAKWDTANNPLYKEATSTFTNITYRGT


Target: T1, integrin αvβ3 on β3-CHO cells …
Test: cell adhesion assay (β3-CHO cells on coated IGF2)
Settings: chain shown with the change, Tyrode-HEPES buffer, 1 mM Mg2+, read off a plot
[1] = IGF2 coating 5 µg/ml, parent: est. 30
[2] = IGF2 coating 10 µg/ml, parent: est. 43
[3] = IGF2 coating 20 µg/ml, parent: est. 56

Row | Binder | response (10 µg/ml IGF2, parent: est. 43) [% Adhesion] | response [1] [% Adhesion] | response [2] [% Adhesion] | response [3] [% Adhesion]
1 | WT IGF2 (insulin-like growth factor-2) R24E; R34E; R37E; R38E (protein) AYRPSETLCGGELVDTLQFVCGDEGFYFSRPASEVSEESRGIVEECCFRSCDLALLETYCATPAKSE | 15 | – | – | –
2 | WT IGF2 (insulin-like growth factor-2) R24E; R37E; R38E (protein) AYRPSETLCGGELVDTLQFVCGDEGFYFSRPASRVSEESRGIVEECCFRSCDLALLETYCATPAKSE | 16 | 9.5 | 16 | 17
3 | WT IGF2 (insulin-like growth factor-2) R30E; R37E; R38E (protein) AYRPSETLCGGELVDTLQFVCGDRGFYFSEPASRVSEESRGIVEECCFRSCDLALLETYCATPAKSE | 25 | 20 | 25 | 36
4 | WT IGF2 (insulin-like growth factor-2) R34E; R37E; R38E (protein) AYRPSETLCGGELVDTLQFVCGDRGFYFSRPASEVSEESRGIVEECCFRSCDLALLETYCATPAKSE | 15 | 6.5 | 16 | 15
